Results taken from paper PMC11255897.

Molecular target: Ras binding domain (RBD) of the yeast Ras effector Byr2 fused to GST
Experiment: pull-down with GST-Byr2(RBD), Flag immunoblot densitometry
Conditions: read off a plot; for percent of parent (% of RasC(WT)-CA binding) / percent of parent (% of wild-type RasC peak (10 s cAMP)): parent: est. 100; for percent of parent (% of wild-type RasC peak (10 s cAMP)): 10 s cAMP stimulation; for response (% of wild-type RasC peak (10 s cAMP)): basal (before cAMP stimulation), parent: est. 20

| percent of parent (% of RasC(WT)-CA binding) | percent of parent (% of wild-type RasC peak (10 s cAMP)) | response (% of wild-type RasC peak (10 s cAMP)) | response (% of RasC(WT)-CA binding) (parent: est. 15) | Substance |
| --- | --- | --- | --- | --- |
| 240 |  |  |  | constitutively active (CA) RasC-Q62L mutant, Flag-tagged (from UniProt P32253) A31D |
| 290 |  |  |  | constitutively active (CA) RasC-Q62L mutant, Flag-tagged (from UniProt P32253) A31K |
| 200 |  |  |  | constitutively active (CA) RasC-Q62L mutant, Flag-tagged (from UniProt P32253) A31L |
| 180 |  |  |  | constitutively active (CA) RasC-Q62L mutant, Flag-tagged (from UniProt P32253) K138A; R164A; K167A |
| 210 |  |  |  | constitutively active (CA) RasC-Q62L mutant, Flag-tagged (from UniProt P32253) K182A; K183A; R184A |
| 12 |  |  |  | constitutively active (CA) RasC-Q62L mutant, Flag-tagged (from UniProt P32253) Y41A |
|  | 42 | 27 |  | wild-type Flag-RasC (from UniProt P32253) A31D |
|  | 130 | 28 |  | wild-type Flag-RasC (from UniProt P32253) A31K |
|  | 170 | 35 |  | wild-type Flag-RasC (from UniProt P32253) A31L |
|  | 2 | 2 |  | wild-type Flag-RasC (from UniProt P32253) C186A |
|  | 10 | 5 |  | wild-type Flag-RasC (from UniProt P32253) E38A |
|  | 18 | 19 |  | wild-type Flag-RasC (from UniProt P32253) E38A; N39A; S40A |
|  | 100 |  |  | wild-type Flag-RasC (from UniProt P32253) K138A; R164A; K167A |
|  | 17 | 8 |  | wild-type Flag-RasC (from UniProt P32253) K182A; K183A; R184A |
|  |  |  | 100 | wild-type Flag-RasC (from UniProt P32253) Q62L |
|  | 8 | 11 |  | wild-type Flag-RasC (from UniProt P32253) T36A |
|  | 23 |  |  | wild-type Flag-RasC (from UniProt P32253) Y41A |
